These results are taken from paper PMC4154664.

Substrate in this series: CCCCCCCCCCCCCC(=O)SCCNC(=O)CCNC(=O)[C@H](O)C(C)(C)COP(=O)(O)OP(=O)(O)OC[C@H]1O[C@@H](n2cnc3c(N)ncnc32)[C@H](O)[C@@H]1OP(=O)(O)O
Nature of the series: purified protein.

B1: C. elegans NMT (CeNMT, myristoyl-CoA:protein N-myristoyltransferase) (Caenorhabditis elegans) (protein)
chain: MSHGHSHDGAPCGGHHGDDGAGGSRPSVNDVQALVDQLRLAGVDVSNMPNIPTAPRDMDEARSKSFQFWSTQPVPQMDETVPADVNCAIEENIALDKVRAEPFSLPAGFRWSNVDLSDEEQLNELYNLLTRNYVEDDDSMFRFDYSADFLKWALQVPGFRPEWHCGVRADSNNRLLAFIGAVPQTVRVYDKTVNMVEINFLCVHKNLRSRRVAPVLIREITRRVNVTGIFQAAFTAGIVIPKPVSVCRYYHRSLNPRKLIDVRFSHLSAKMTMARTIKLYKLPEETATRNLREMKSTDVPQVFKLLTTSLKQYSLAPVYNSEEELAHALVPKKGVVYSYVAENQNGKITDFVSFYSLPSTVMGHTTHKTIYAAYLYYYVAGSVTPKQLINDSLILANREKFDVFNALDLMHNEKIFSDLKFGKGDGNLQYYLYNWKCADMKPSQIGLVLQ
For orientation: Km means the concentration of substrate that gives half-maximal velocity. On to B1, for which the Km was 12.2 µM.

B2: B. malayi NMT (BmNMT, myristoyl-CoA:protein N-myristoyltransferase) (Brugia malayi) (protein)
chain: MKEPPAGNIKLDDEDEKMMAAGNSKMDQNNDKENDAGDESIQNVTGRNSPTAVIDLKELTESTLMKKFEMLTVGGTSAAKHITEAQRHKYLFWDTQPVPKINEMVTENRAIEPPLDISEVREEPFSLPDPFCWCDIEINSVKELTELYTLLTENYVEDDDNMFRFDYSPEFLLWALKAPGWMKNWHCGVRAKSNGKLIAFISAIPSVIRVYDKQIKMVEINFLCVHKKLRSKRVAPVLIREITRRVNREGIFQAVFTAGVVLPKPIATCRYWHRSLNPKKLIEVKFSHLSRKMTMQRTLKLYKLPDHPRTANLVPMKKCHIDGAYGLLQCYLKKFDLSPQFTRADFEHFFMPREDVIYSYVALNEEDSKVSDLISFYSLPSSVMHHPQYKSIRAAYSFYNVATSVTLKQLINDALILARNCGFDVFNALDLMDNKEILEDLKFGIGDGNLQYYLYNWKCPDIIPEKIGLVLQ
As to B2, the Km turned out to be 4.4 µM.
